Data on six molecules can be found in patent US11898183B2, “Programmed microorganisms to attenuate a disease” (priority 2020, dated 2024).

In this series the test system is pathway specific substrates. Briefly: Enzyme functionality of pathway enzyme homologs and fusion constructs in lysed E. coli cell extracts, product by HPLC. The format is biochemical, E. coli BL21. The conditions noted are these: protein expressed in E. coli, lysed cell extract, pathway specific substrate, HPLC. How it is done:
As per one of the possible implementations of the present disclosure, two proteins—cinnamate-4-hydroxylate (C4H) and 4-coumaroyl CoA-ligase (4CL) were expressed as one fusion protein. Also, other two proteins which were expressed as one fusion protein were hydroxycinnamoyl-CoA quinate hydroxycinnamoyltransferase (HCT) and p-coumaroyl quinate 3′-hydroxylase (HCTC3H). The fusion gene and the corresponding fusion protein was prepared using the following method. […] The enzyme fusion constructs were made for the selected genes (Table 5). Pathway genes and the fusion constructs were individually cloned in E. coli expression vector pET28+ under T7 promoter and transformed in E. coli BL21 cells. Recombinant bacterial cells were induced with IPTG and enzyme functionality was tested with pathway specific substrates (Table 5) using lysed E. coli cell extracts. HPLC analysis was carried out to quantify the product formation and in turn shortlisting of efficient enzymes for functional pathway assembly towards Etoposide in E. coli.
The E. coli transformants were grown overnight at 37° C. in 1 ml of M9 minimal media containing ampicillin (100 mg/1), in 96-well format. The next day, 150 μl of each culture was inoculated into 3 ml M9 minimal media containing ampicillin (100 mg/1), IPTG 0.1 mM in 24-well format, and incubated at 30° C. and 200 rpm for ˜20 hours. The following day, cells were spun down and pellets were resuspended in 100 μl of lysis buffer containing 10 mM Tris-HCl pH 8, 5 mM MgCl2, 1 mM CaCl2) and complete mini protease inhibitor EDTA-free (3 tablets/100 ml) (Hoffmann-La Roche, Basel, Switzerland) and frozen at −80° C. for at least 15 minutes to promote cell lysis. Pellets were thawed at room temperature and 50 μl of DNase mix (1 μl of 1.4 mg/ml DNase in H2O (˜80000 u/ml), 1.2 μl of MgCl2 500 mM and 47.8 μl of 4×PBS buffer solution) was added to each well. Plates were shaken at 500 rpm for 5 min at room temperature to allow degradation of genomic DNA. Plates were spun down at 4000 rpm for 30 min at 4° C. and six μl of the lysates were used in in vitro using appropriate substrates for enzymes as per Table 6. In each case, the resulting compounds were measured by HPLC. Results were analysed in comparison with the lysates expressing the corresponding controls (the empty plasmid). […]

B1: HCTC3H Coffea canephora: hydroxycinnamoyl-CoA:quinate hydroxycinnamoyltransferase p-coumaroyl quinate 3′-hydroxylase fusion (HCTC3H), Coffea canephora (protein, listed as Coffea canephora)
chain: MKIEVKESTMVRPAQETPGRNLWNSNVDLVVPNFHTPSVYFYRPTGSSNFFDAKVLKDALSRALVPFYPMAGRLKRDEDGRIEIECNGEGVLFVEAESDGVVDDFGDFAPTLELRRLIPAVDYSQGISSYALLVLQVTYFKCGGVSLGVGMRHHAADGFSGLHFINSWSDMARGLDVTLPPFIDRTLLRARDPPQPQFQHIEYQPPPALKVSPQTAKSDSVPETAVSIFKLTREQISALKAKSKEDGNTISYSSYEMLAGHVWRCACKARGLEVDQGTKLYIATDGRARLRPSLPPGYFGNVIFTATPIAIAGDLEFKPVWYAASKIHDALARMDNDYLRSALDYLELQPDLKALVRGAHTFKCPNLGITSWVRLPIHDADFGWGRPIFMGPGGIAYEGLSFILPSPTNDGSMSVAISLQGEHMKLFQSFLYDIGGGGSGGGGSGGGGSMALLLILLPVAFIFLAYSLYERLRFKLPPGPRPKPVVGNIYDIKPVRFKCYAEWSKLYGPIFSVYFGSQLNTVVNTAELAKEVLKDNDQQLADRYRSRPSARMSRNGQDLIWADYGPHYVKVRKLCNLELFTPKRLEGLRPLREDEVTAMVDSIFKDCTKPENKGKSLLMRNYLGSVAFNNITRLTFGKRFMNSEGVVDEQGQEFKGIVSNGIRIGAKLSVADHIPWLRWMFVGENEDLDKHNARRDKLTRMIMEEHTLARQKSGNTKQHFVDALLTLQKQYELSDDTVIGLLWDMITAGMDTTTISVEWAMAELVKNPRVQQKAQEELDRVIGSDRIMTEADFAKLPYLQCVAKEALRLHPPTPLMLPHRANANVKIGGYDIPKGSIVHVNVWAIARDPAAWKNPLEFRPERFLEEDVDIKGHDYRLLPFGAGRRICPGAQLALNLVTSMLGHLLHHFTWSPPPGVRPEEIDLEESPGTVTYMRTPLQAVATPRLPAHLYNRVPVE
As for B1, the enzyme activity is 89%.

B2: C4H4CL Azospirillum sp.: Cinnamate 4 hydroxylase 4 coumarate coenzyme ligase fusion (C4H4CL), Azospirillum sp. (protein)
chain: MDLLLLEKTLLALFIAATIAITISKLRGKRFKLPPGPIPVPVFGNWLQVGDDLNHRNLTDLAKRFGDIFLLRMGQRNLVVVSSPELAKEVLHTQGVEFGSRTRNVVFDIFTGKGQDMVFTVYGTLAEMRRIMTVPFFTNKVVQQYRFGWEFEAQSVVDDVKKNPEACSSGIVLRRRLQLMMYNIMYRIMFDRRFESEEDPLFVKLKALNGERSRLAQSFEYNYGDFIPILRPFLKGYLKLCKEVKDRRLQLFKDYFVDERKKLGSTKSTTNEGLKCAIDHILDAQQKGEINDDNVLYIVENINVAAIETTLWSIEWGIAELVNHQKIQNKVREEIDRVLGPGHQVTEPDLQKLPYLQAVIKETLRLRMAIPLLVPHMNLHDAKLSGFDIPAESKILVNAWWLANNPAQWKKPEEFRPERFLEEESHVEANGNDFRYLPFGVGRRSCPGIILALPILGITLGRLVQNFELLPPPGQSKIDTAEKGGQFSLHILKHSTIVCKPRSFNGGGGSGGGGSGGGGSMTIQRWWRNRESLNRVLCDLLAGEFARLRPGGSPPAHPHRWPETLPLGPDGVGADSLDLLQLAAALNEALHLHRSGIEDYLLMHRTVGDWLDVCEAALGRFDGALSFRTSGSTGEGKRCEHPLAALEEEADALAALLSGGAEAPRRVVSVVPAHHIYGFLFTVLLPDRLAVPVVDGRGTSPGGLAARLGPGDLVVAHPDWWGALLRSGAALPDGVTGTSSTAPCPPDTARGVRGVGLARLVEVFGSSETAGLGWRESPDAPFRPFPWWRFGDDGRVTRRLADGTVLSATLQDRLSHDEEGFRPSGRLDTVVQVGGVNVSLAGVQAHLAGHPDVEAAAVRLMRPEEGTRLKAFIVPARTAPPREELYRRLTDWIEATLPAPHRPRALAFGPALPVNGMGKPCDWPLATCR
modifications: Depicts the nucleic acid sequence of Cinnamte 4 hydroxylase 4 coumarate coenzyme ligase fusion (C4H4CL) of Azospirillum sp.
In turn, B2 yielded an enzyme activity of 97%.

B3: CYP82D Panax ginseng: CYP82D from Panax ginseng (protein)
chain: METFLAQLYSTTTIAALFVLLVLYYFSPWTRINKKNVAPEAGGGWPIIGHLHLLGGSKLPHLVFGSMADKYGPIFTVRLGVQRSLVVSSWEMVKDIFTTNDVIVSGRPKFLAAKHLSYNYAMFGFSPYGSFWLELRKITSLQLLSNRRLELLKHVRVSEMEISMRQLYKLWSEKKNGSGRVLMDMKKWFGELNLNVTFRMVAGKRYFGGGAASNDEEARRCRRVVREFFRLLGVVVVADSLPFLRWLDLGGYERAMKETAREMDSIVSVWLEEHRIKSDSSGDDANMEQDFMDVMLSAVKNVDLCGFDAHTVIKATCMVIISSGTDTTTVELTWALCLLLNNRHVLKKAQEELDNVVGKQRRVKESDLNNLIYLQAIVKETLRLYPAGQLGGQREFSDDCTVGGYHVPKRTRLVVNLWKLHRDPRIWSDPTEFRPERFLERHKEIDVKGQHFELIPFGAGRRVCPGITFGLQMFHLVLASLLHGFDISTPSDAPVDMAEGAGLTNAKITPLEILIAPRLSPSLYE
modifications: Panax ginseng
In the case of B3, the enzyme activity result was “around 93%”.

B4: 2-ODD Nitrospira japonica: 2-oxoglutarate/Fe(II)-dependent dioxygenase (2-ODD) from Nitrospira japonica (protein)
chain: MMGGAMTTQTLDTIAEAVDQAVARLDFDRLHREYWEQNEFLVIPQFLDRAMVEEWLVPQAQGVKGDLNRNYIPGHKKGGSVSYYTVMEKAPRFLDLYRSQVFIEFLSRLSHAKLRLCPDNDPHSCALYYYTEPGDHIGFHYDTSYYKGSRYTILMGLVDQSTHCKLVCELFKDDPVRPSKRLELITQPGDMVIFNGDKLWHAVTPLGPNEERIALTMEYVTNPDMGTFKRLYSNLKDSFAYFGLRAVFKRALSLPRR
modifications: Depicts the nucleic acid sequence of 2-oxoglutarate/Fe(II)-dependent dioxygenase (2-ODD) of Nitrospira japonica
notes: 2-oxoglutarate/Fe(II)-dependent dioxygenase (2-ODD) from Nitrospira japonica
Take B4: the enzyme activity came out at 88%.

B5: PAL Ganoderma sinense: Phenylalanine ammonia-lyase (PAL) from Ganoderma sinense (protein)
chain: MPGYTLTKTQSTSTFEPSPVTLKKAAVSSPLHAEPELPKQSSAPTLLHKFVEAHRALNNYKQGQPIVVDGQTLSIPAVAAVARYNADVVLDDSSDIQTRVLKSRQVIVDKVSSQKSVYGVSTGFGGSADTRTSDPLTLGLALFQHQHCGVLPSDTDSVPVALPLLDPLTSTSMPESWVRGAILIRMNSLIRGHSGVRWELIERMSALLRENIVPLVPLRGSISASGDLSPLSYIAGLLIGNPSIRVFDGPSTFRGRRIVSSREALSAHHIEPISLGSKEHLGILNGTAFSASVGALAVHEAVHLSLLGQVCTAMCTEAMLGAKGSFAPFIHSVARPHPGQVEVAETVTDLLEGSHFAVTAEEEKHISADIGELRQDRYPLRTSAQFLGPQVEDVLSAFAAITIECNSTTDNPLIDGETGEVHHGGNFQAMSVTNAMEKTRLAMHHIGKLLFAQCTELLNPSMNRGLPPNLAATDPSHNYFAKGVDIHAAAYVGELGYLANPVSTHVQSAEMHNQAVNSLALISARATLNSLEVLSILTSSFLYVLCQALDLRAMQHEFELEVDGILRQQLALSFGRHLSAADLDALFSVLSRHVRRSLETTSTMDAALRMRTVAAATTTPFVDFCAKRNTSLDLDEIVAFRAGLSEGMVGSLVRLREEYLRGSKGPAPAAKYLGRSRAVYEFVRVTLGIRMHGSENLHDFKEGPGVEDPTIGQDIALIHEAIRDGKMQDVVVGIFA
modifications: Ganoderma sinense
As to B5, the enzyme activity is listed as 98%.

B6: UGT Cicer arietinum: Glycosyltransferase (UGT) from Cicer arietinum (protein, listed as Cicer arietinum)
chain: MKKIEVVFIPSPGVGHLISTLEFANLLINRNNRLNITVLVINFPKTVEKQTNYSLTESENLHVINLPQTTTHVPSTSDVGNSISALVETQKSNVKQAVSNLTGTLAAFVVDMFCTTMIDVANELGVPSLVFFTSGVAFLGLMLHLHTIWEQQDTELLLQQDELDIPSFANPVATNTLPTLVLRKEWESSFIKYGNGLKKASGIIVNSFHELEPHAVRSFLEDPTLRDLPIYPVGPILNPKSNVDSDDVIKWLDDQPPSSVVFLCFGSMGTFDEEQVREIALAIERSGVRFLWSLRKPQPQGTMVPPSDYTLSQMLEVLPEGFLDRTANIGRVIGWAPQVQVLAHQATGGFVSHCGWNSTLESIYYGVPIATWPLFAEQQTNAFELVRELKIAVEIALDYRLEFDIGRNYLLDADKIERGIRGVLDKDGEVRKKVKEMSQKSRNVLLEGGSSYTYLGQLIDYITNQV
Turning to B6, the enzyme activity is 97%.
